{"source": "patent US20120276091A1", "about": "(HANWHA CHEMICAL, published 2012)", "key": {"[1]": {"biological_target": "T1, recombinant human VCAM-1 domain 1-7/Fc chimera (R&D, 862-VC) (human, UniProt P19320 25-698)", "T1 construct": "domain: D1-D7; Bought; also called VD7; hVCAM-Fc-chimera; not shown: Fc of the bought chimera", "T1 sequence (looked up)": "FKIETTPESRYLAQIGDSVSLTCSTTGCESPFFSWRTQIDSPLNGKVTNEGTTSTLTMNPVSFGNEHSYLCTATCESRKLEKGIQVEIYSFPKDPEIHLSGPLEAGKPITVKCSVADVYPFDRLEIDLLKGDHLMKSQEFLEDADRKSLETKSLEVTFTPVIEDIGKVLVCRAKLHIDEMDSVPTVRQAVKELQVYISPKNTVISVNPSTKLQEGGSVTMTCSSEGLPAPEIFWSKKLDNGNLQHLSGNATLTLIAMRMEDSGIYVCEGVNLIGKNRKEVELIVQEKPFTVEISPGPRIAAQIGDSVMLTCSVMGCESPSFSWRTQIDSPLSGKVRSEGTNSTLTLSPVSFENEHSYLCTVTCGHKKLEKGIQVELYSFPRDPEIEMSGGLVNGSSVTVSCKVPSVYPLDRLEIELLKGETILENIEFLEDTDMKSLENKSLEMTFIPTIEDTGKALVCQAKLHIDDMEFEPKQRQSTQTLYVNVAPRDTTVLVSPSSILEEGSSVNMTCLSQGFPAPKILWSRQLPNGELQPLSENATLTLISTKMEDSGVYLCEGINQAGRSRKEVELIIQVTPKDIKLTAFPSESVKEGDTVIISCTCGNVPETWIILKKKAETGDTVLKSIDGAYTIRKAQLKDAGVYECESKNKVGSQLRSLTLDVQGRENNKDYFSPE", "experiment": "BIACORE (SPR), VCAM1/Fc immobilised on CM5 chip, antibody as analyte, 1:1 binding model", "description": "(§1) Journal of Bioscience and Bioengineering Vol. 100, No. 3, 311-317, 2005).\n(§2) For ligand immobilization to the sensor chip CM5, the chip should be first activated with a mixture of N-hydroxysuccinimide (NHS) and […] (Amine Coupling Kit, BR-1000-50) to prepare a NHS-ester-activated chip surface being highly reactive to amino group. 1 mg/ml of ligand to be immobilized was diluted in 97 μl of each sodium acetate solution (vary within the pH range from 4.0 to 5.5) at a dilution ratio of 3/100, and then applied at a flow rate of 10 μl/min for about 3 min (as a negative control, the ligand was diluted using a running buffer, HBS-EP buffer (BIACORE AB, Sweden) in the same manner). In order to immobilize the ligand at a predetermined value target RU (resonance unit), serial injection was carried out automatically, until reaching target RU. […] The final RU was determined by an immobilization report which provides a difference in RU values before and after injection of ethanolamine.\n(§3) A flow cell 2-flow cell 1 mode provided by BIACORE instrument was employed in this experiment in order to remove non-specific binding. […] Through this procedure, an association/dissociation curve of the corresponding antigen and antibody was obtained, and an association/dissociation constant KD was calculated by BIAevaluation program (BIACORE AB, Sweden), as shown in FIG. 3."}, "[2]": {"biological_target": "T1, recombinant human VCAM-1 domain 1-7/Fc …", "experiment": "BIACORE (SPR), recombinant VCAM1/Fc immobilised on sensor chip CM5, antibody as analyte, 1:1 binding model", "description": "as §1, §2, §3"}}}
{"binder": "7HT antibody (VCAM-1 antibody, VCAM-1 Ab) (antibody, V domains shown, Human antibody, full IgG; also called VCAM-1 Ab (7HT); 7HT Ab) VH: EVQLVQSGGDLVKPGESLRLSCAASGFTFNDAWMTWVRQPPGKGLEWVGRIKSTTDGGTTNYAAPVEGRFTISRDDSKNTLYLEMNSLRAEDTAVYYCARIPLFNHDSGGYHGAFDIWGQGTMVTVSS VL: DIQMTQSPSSLAVSLGERATINCKSSQSVLYSSNNKNYLAWYQQKPGQPPKLLIYWASTRESGVPDRFSGSGSGTDFTLTISSLQPEDFASYYCQESYSAPYTFGQGTKVEIKR", "values": [{"measurement": "Kd", "setting": "[1]", "result": "~6.3", "unit": "nM"}, {"measurement": "koff", "setting": "[2]", "result": 0.00176, "unit": "s⁻¹"}, {"measurement": "kon", "setting": "[2]", "result": 279000, "unit": "M⁻¹ s⁻¹"}]}
